The nature of the data set: soluble fraction after stress (log2 fold change); higher = more stays soluble; pooled small domains, quantitative proteomics. The following applies: stress: 75 degC.
Regarding “HMNMPDVTVEWVKEQQAKFGLTDSDLAKSVNIDNANLARIFNQRGLTKIHKALFYYFFRAYGLQ”, the “soluble fraction (log2)” value was -3.33.

For “HMNMRVLSEQPNKKSYQDGNLRLKVFGASFKKSDILNEALNQARVEETGLQIPKLLEVKQIDGQWTIVTE”, the “soluble fraction (log2)” value was -0.0583.

Regarding “HMNMVSGHLQVKKGYYYAVLSFYDSKNKRHVKYISTGLPEKGNKRKAEAELVKIRNAFEPPAE”, the “soluble fraction (log2)” value was -0.516.

In the case of “HMNNESEGAIMLRQYSSLSAYLTKYNIDVNSKKAQQYASSLKLAQEKGSAEGQKYLSSISSELDD”, the “soluble fraction (log2)” value was -0.205.

For the sequence “HMNNIIEQIKADIKKLEEKLDKSSENALNKLEKDYSSLSTESKKKLDDAGYGARIKALRVKFAALSTQ”, the “soluble fraction (log2)” value was -0.0452.

Turning to “HMNNISKKIKELREQNNITQNKLANDLFIKQQTVAQWENGSRALKADSIISLAKYFNVSTDYLLGLTEN”, the “soluble fraction (log2)” value is -0.898.

“HMNNLKTKELSKIGYTNDKARSLVISIIPKHFKYHSKSEIIELLTNIKNKPEDYVSDEILGKIAETFMEKI”: the “soluble fraction (log2)” value was -1.23.

On to “HMNNLSEELNVTFPRTRDQLLNILHYVQHKYGYISKVSMQEIGNHIKMPVSEIYGTVTSYSEFKI”, for which the “soluble fraction (log2)” value was -2.25.

Regarding “HMNNLTEEAINHLVLEVKNVLLTDALFLGKATDSQLMLRIKETIDQRNGQYNIGMNDRERIARRVFARLR”, the “soluble fraction (log2)” value is -2.19.

Turning to “HMNNLVGKTKVLKSNTNIYAYKTMSGKFYSYLPNTRVRVLQDLGYINYIEVIATKRRGYVYENVY”, the “soluble fraction (log2)” value was -0.234.

On to “HMNNNIFVYPNPSINYINIDSDEEIWKLEIIQMSGEKINILPFSKRIDISFLSKGLYILNFNNYYIKFIK”, for which the “soluble fraction (log2)” value is -0.136.

As to “HMNNQIFGLKFRQLRKQQHITLAKAAAGITSRQSLGNWETGKGELAFEKVLLLLKKINVQPIDFLESSIS”, the “soluble fraction (log2)” value was -3.9.

For the sequence “HMNNQILYERLRDLRERNHFTQAFVSSKLNIGRATYSNYERGKRTPSLDVIMDLASFYKVPFTYF”, the “soluble fraction (log2)” value is 0.0974.

For “HMNNQMTFSKFLNEVDAGRVVEVEIQGNNIKGVLADGNRFNTFSPNYPNLVEKLSDKGVSITAAPK”, the “soluble fraction (log2)” value stood at 0.174.

With “HMNPASVLDGLKITSFSPTRAIVAGPGGSRIVFDNEAVVLGGIEWDVHIQRNGIEFTSQGQTVLLLFDRS”, the “soluble fraction (log2)” value was -2.35.

Take “HMNPDDEMLLTYLTKLLVDKQFIVNSNDIFEYILRRVDRTYDGIYDIVSKLDVLSLEKKRQLTIPLIKEI”: the “soluble fraction (log2)” value amounted to 0.288.

With “HMNPETIHNDYKAFIKFAFSGLSYYSKVWNQNREMITPGLLETLWQKYRHLSIGEIETILEKIIKEG”, the “soluble fraction (log2)” value is -2.38.

“HMNPGNTESFPVYQKRLGEIIQTLAGKKGQDINSPEVKELVGEYDFLTKQMFQLPDATSMVMEIATAYRN”: the “soluble fraction (log2)” value is 0.0725.

Regarding “HMNPKTELMVYLKKRDEWVASQILSDVLQVSTRTIRKFVKEINMDYQTENVILSSSKGYKLNQNLLSSL”, the “soluble fraction (log2)” value is -1.19.

On to “HMNPLPALLRYFRQKAGLTQQDVAAALSISRSGYANYEEGRNIPNIEQAIKLSELLNHDFLYAYTLSS”, for which the “soluble fraction (log2)” value was -2.53.

Consider “HMNPNYIKKLREKNQLTQEYLAAQIGVSRPTYAQIEQGQRGLTVTEAKKMADIFSLALDDFLAEKN”, for which the “soluble fraction (log2)” value was -0.135.

Consider “HMNPSIALHDWLQSSEFKGSINLFAAALGMNPRTVEAWVYGRSTPSRRFWAKLYQITNLSRFRL”, for which the “soluble fraction (log2)” value is -1.08.

On to “HMNPYLWQRVRLLFSNVGVINNSATVDLVFSAPKGVLTEDLANNFSAALVKKGKEELGLDDIKITISVIPN”, for which the “soluble fraction (log2)” value is -3.67.

As to “HMNQADNFNSLTKREKDVLLLVTQGESNKSIADKLVLSEVTVKSHLNSIFKKLNVTNRTQAVLVAMQMNLV”, the “soluble fraction (log2)” value is -1.6.

On to “HMNQAIIVPDVKGLPLEEATTFFENNDLRYTVIDSVYTKDVPPGAIYEMVPGAGSKVKEGRIIFVTLNAR”, for which the “soluble fraction (log2)” value was -0.183.

Consider “HMNQASLTYSEFIANVESKAITRVTISGDTISGILADGKPFQTIYPMADLELLPILRRSGVDINVKEVQ”, for which the “soluble fraction (log2)” value was -1.51.

For the sequence “HMNQEIELLLREPDFTSAARLAMAINERFTNSARAIDPTSVKVRMPEGLDQASVDFVARLEDIEMSPDT”, the “soluble fraction (log2)” value was found to be 0.155.

In the case of “HMNQEQQSAVMSALKATLPDLEAALEARQFKESKQLLKTAQNQFQQLDGRNRRGFQARIQLLAGQFRELS”, the “soluble fraction (log2)” value was -0.179.

“HMNQIDDADRKRVVDEVAGQFSSMSLTEMRSDREKLLSRIIPQVQTTLNRLGLQTIDVEGIAREVIARVG”: the “soluble fraction (log2)” value is -0.0822.

Take “HMNQIFAPMPGLVLEVKLSEGDVVAEGESAIILEAMKMENIIKSPINGIVKKVHVKKGQTIEKNTLIISFK”: the “soluble fraction (log2)” value is -3.1.

For the sequence “HMNQLSYTERRVLQVIEGGTTKTGEIEQALAAKMSRPTVHRALDALVGANRIHRLARGEYALGPAP”, the “soluble fraction (log2)” value was -0.501.

In the case of “HMNQRQKQLLSILEQQGDWMKGKALATLLAVSDRTIRSDIEKINREVEGSILSHPHKGYLLSVENRQIAET”, the “soluble fraction (log2)” value turned out to be 0.107.

Consider “HMNQSKYQTIADELKSKILSGEYPENTTIPPELQLQKDYQVSRHTIRQAIALLANEGFLRKEKGSGTYVDV”, for which the “soluble fraction (log2)” value is -0.147.

With “HMNQTTYTVLYSGMDPADTGKVLTALNEMGVDARTQGEDTVLVPADRADEIRLELAAQGYPTS”, the “soluble fraction (log2)” value was 0.06.

Consider “HMNQYIFVLNEKGARITSFVDNTIPKEELIALAKQDYPNAADYIYSADGDSMLDEFMRGKLYVNGQFVAA”, for which the “soluble fraction (log2)” value was -0.843.

Regarding “HMNREIVVYITGAVDNPGLYRLPLDSRLDDVLKLAVLSTNADREVLNPAQKLKDGQKIVVPYIVE”, the “soluble fraction (log2)” value is -0.49.

“HMNRGITVIVNNEEIKMKEKAQYVVVDIFDYIDFDLTVPKGSINITLNGENTPYTASIKDGDVIEVFW”: the “soluble fraction (log2)” value was -1.09.

For the sequence “HMNRIARRELMEQLFADNKITTQEQLQQLLRAEGVEVTQATISRDMRILNIVKVSDQNGNTYYKQMK”, the “soluble fraction (log2)” value was -0.171.

On to “HMNRIEMTEPIIIKDLSRETGIPWVAIQKRLAQDGIMANINTTIEAEKAQLIAVDYGIELAVV”, for which the “soluble fraction (log2)” value is -0.427.

With “HMNRIGERIKRKRELRNLNLGELAEKVGISASALSQIEKSKSFPSVITLKSIAEQLRTTVGELIGEN”, the “soluble fraction (log2)” value was -0.191.

Regarding “HMNRIKIYPTPGSKVLSIENINFSLIHDFKILDIFGREVKNFTVSSEKNTKMLVDTSKLSDGLYFIFFNTF”, the “soluble fraction (log2)” value is -1.11.

Regarding “HMNRLEFLQGLKAELEGRVPHSIIQENLRYYDSYISDEAAKGQSEEDVVESLGGPRIIARTIVDAA”, the “soluble fraction (log2)” value was found to be 0.267.

Take “HMNRNEFMERLEYLLSDIPQEEKADAIAYYRDYLEEAGDDAGKAIQDFGSPERIAAMIRSELAG”: the “soluble fraction (log2)” value is -0.0288.

In the case of “HMNRQTGTVKWFNDAKGFGFITPESGPDLFVHFRSIQGAGFKSLQEGQRVTFVAVQGQKGMQADQVQA”, the “soluble fraction (log2)” value is -0.681.

As to “HMNRTKQIYNELLFRLDQGVYPPESKFPSESQLADEFSVSKVTMNKIVSMLASSGRLSRGVRGAGTFVSSP”, the “soluble fraction (log2)” value is -1.33.

Regarding “HMNRYPIQTEVHAFNDDIIKEAINFEMSRGGQIFFVNNRIPQLYELENTIHRLVPDARVVIGHGQMP”, the “soluble fraction (log2)” value is -0.216.

Regarding “HMNSFKIYPNPSSREVVRFNQAQDVKVYDTLGKLILSAKNTSAIDTKSFNTGIYFIKTANGLTKKLIV”, the “soluble fraction (log2)” value was -0.886.

Take “HMNSGFEVFREVVNQGSFIGAANALGISAPAVSKQIKLLENRLGLLLLYRTTRNVTLTDIGKQLFDTLDNS”: the “soluble fraction (log2)” value was -1.98.

For the sequence “HMNSKKRQAILESLRSVTDHPTAEMIYNRLKPEYPDLSLGTVYRNLAMFLEEGQVISVGTVDGQERYDAR”, the “soluble fraction (log2)” value was -0.564.

Take “HMNSKSFIFHIEDEEGIRLDVFLADNLPDVSRSYVQKLIDEEHVKVNGQSAKSRLKTVSGMEITVDVPAPK”: the “soluble fraction (log2)” value is -0.56.

Source of the values: the domain aggregation screens of Martell et al. (2025).
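Further: 20 min heating vs room temperature control held 20 min.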
